{
  "source": "the Human Domainome abundance scans (Beltran et al. 2025)",
  "parents": {"B1": {"name": "Ankyrin-2, residues 3571 to 3650; numbered along this chain, Q01484 (parent)", "chain": "ERLAYIADHLGFSWTELARELDFTEEQIHQIRIENPNSLQDQSHALLKYWLERDGKHATDTNLVECLTKINRMDIVHLME"}},
  "note": "± gives the uncertainty stated by the source.",
  "data": [
    {"variants_of": "B1", "test": "abundance fitness (aPCA) (normalised: wild type 0, dead -1); higher = more abundant; growth selection in yeast, the domain comes from the species named", "conditions": "Homo sapiens", "values": [
      {"variant": "ERLAYIADHLGFSWTELARELDFTEEQIHQIRIENPNSLQDQSHALLKYWLERDGKHATDHNLVECLTKINRMDIVHLME", "abundance fitness": "-0.038 ± 0.13"},
      {"variant": "ERLAYIADHLGFSWTELARELDFTEEQIHQIRIENPNSLQDQSGALLKYWLERDGKHATDTNLVECLTKINRMDIVHLME", "abundance fitness": "-0.099 ± 0.12"},
      {"variant": "ERLAYIADHLGFSWTELARELDFTEEQIHQIRIENPNSLQDQSHALLKYWLERDGKHACDTNLVECLTKINRMDIVHLME", "abundance fitness": "-0.095 ± 0.1"},
      {"variant": "ERLAYIADHLGFSWTELARELDFTEEQIHQIRIENPNSLQDQSHALLKYWLERDGKHAQDTNLVECLTKINRMDIVHLME", "abundance fitness": "0.008 ± 0.074"},
      {"variant": "ERLAYIADHLGFSWTELAREEDFTEEQIHQIRIENPNSLQDQSHALLKYWLERDGKHATDTNLVECLTKINRMDIVHLME", "abundance fitness": "-0.849 ± 0.14"},
      {"variant": "ERLAYIADHLGFSWTELARELDFTEEQIHQLRIENPNSLQDQSHALLKYWLERDGKHATDTNLVECLTKINRMDIVHLME", "abundance fitness": "-0.06 ± 0.065"},
      {"variant": "ERLAYIADHLGFSWTELARELDFTEEQIHQIRIENPNSLQDQSHALLKYWLERDGKHATDTNLVECLTKINRMDVVHLME", "abundance fitness": "0.136 ± 0.27"},
      {"variant": "ERLAYIADHLGFSWTELARELDFTEEQIHQIRIENPNSLQDQSHALLKYWLERDGKHATDTNLVECLTKINRMDAVHLME", "abundance fitness": "0.011 ± 0.17"},
      {"variant": "ERLAYIADHLGFSWTELARELDFTQEQIHQIRIENPNSLQDQSHALLKYWLERDGKHATDTNLVECLTKINRMDIVHLME", "abundance fitness": "-0.01 ± 0.11"},
      {"variant": "ERLAYIADHLGFSWTELARELNFTEEQIHQIRIENPNSLQDQSHALLKYWLERDGKHATDTNLVECLTKINRMDIVHLME", "abundance fitness": "-0.111 ± 0.14"},
      {"variant": "ERLAYIADHLGFSWTELARELIFTEEQIHQIRIENPNSLQDQSHALLKYWLERDGKHATDTNLVECLTKINRMDIVHLME", "abundance fitness": "-0.14 ± 0.35"},
      {"variant": "ERLAYIADHLGFSWTELARELDFTEEQIHQIRIENPNSLQDQSHALLKYWLERDGKHATDTNLLECLTKINRMDIVHLME", "abundance fitness": "-0.016 ± 0.057"},
      {"variant": "ERLAYIADHLGFSWTELARELDFTEEQIHQIRIENPNSLQDQSHALLKYWLERDGKHATDTNLCECLTKINRMDIVHLME", "abundance fitness": "-0.134 ± 0.096"},
      {"variant": "ERLAYIADLLGFSWTELARELDFTEEQIHQIRIENPNSLQDQSHALLKYWLERDGKHATDTNLVECLTKINRMDIVHLME", "abundance fitness": "-0.02 ± 0.2"},
      {"variant": "ERLAYIADHLGFSWTELARELDFTEEQIHQIRIENPNSLQDQSHALLKYWLERDGKHATDTNLVECLTKGNRMDIVHLME", "abundance fitness": "-0.663 ± 0.068"},
      {"variant": "ERLAYIADHLGFSWTELARELDFTEEQIHQIRIENPNSLQDQSHALLKYWLERDGKHATDTNLVECLTKANRMDIVHLME", "abundance fitness": "-0.099 ± 0.07"},
      {"variant": "ERLAYIADHLGFSWTELARELDLTEEQIHQIRIENPNSLQDQSHALLKYWLERDGKHATDTNLVECLTKINRMDIVHLME", "abundance fitness": "-0.066 ± 0.076"},
      {"variant": "ERLAYIADHLGFSWTELARELDFTEEQISQIRIENPNSLQDQSHALLKYWLERDGKHATDTNLVECLTKINRMDIVHLME", "abundance fitness": "-0.041 ± 0.056"},
      {"variant": "ERLAYIADHLGFSWTELARELDFTEEQIHQIRIENFNSLQDQSHALLKYWLERDGKHATDTNLVECLTKINRMDIVHLME", "abundance fitness": "-0.08 ± 0.18"},
      {"variant": "ERLAYIADHLGFSWTELARELDFTEEQIHQIRIENPNSLQDQSHALLKYWLERDGKRATDTNLVECLTKINRMDIVHLME", "abundance fitness": "-0.052 ± 0.058"},
      {"variant": "ERLAYIADHLGFSWTELARELDFTEEQFHQIRIENPNSLQDQSHALLKYWLERDGKHATDTNLVECLTKINRMDIVHLME", "abundance fitness": "-0.792 ± 0.18"},
      {"variant": "ERLAYIADHLGFSWTELARELDFTEEQVHQIRIENPNSLQDQSHALLKYWLERDGKHATDTNLVECLTKINRMDIVHLME", "abundance fitness": "-0.056 ± 0.066"},
      {"variant": "ERLAYIADHLGFSWTELARELDFTEEQYHQIRIENPNSLQDQSHALLKYWLERDGKHATDTNLVECLTKINRMDIVHLME", "abundance fitness": "-0.225 ± 0.12"},
      {"variant": "ERLAYIADHLGFSWTELARELDFTEEQIHQIRIENPNSLQDQSHALLKYWLERDGKHATDTMLVECLTKINRMDIVHLME", "abundance fitness": "0.018 ± 0.14"},
      {"variant": "ERLAYIADHLGFSWTELARELDFTEEQIHQIRIENPNSLQDQSHALLKYWLERDGKHATDTLLVECLTKINRMDIVHLME", "abundance fitness": "0.004 ± 0.047"},
      {"variant": "ERLAYIADHLGFSWTELARELDFREEQIHQIRIENPNSLQDQSHALLKYWLERDGKHATDTNLVECLTKINRMDIVHLME", "abundance fitness": "-0.027 ± 0.069"},
      {"variant": "ERLAYIADHLGFSWTELARELDFAEEQIHQIRIENPNSLQDQSHALLKYWLERDGKHATDTNLVECLTKINRMDIVHLME", "abundance fitness": "-0.053 ± 0.061"},
      {"variant": "ERLAYIADHLGFSWTELARELDFIEEQIHQIRIENPNSLQDQSHALLKYWLERDGKHATDTNLVECLTKINRMDIVHLME", "abundance fitness": "-0.154 ± 0.099"},
      {"variant": "ERLAYIADHLGFSWTELARELDFTEEQIHQIRIENPNSLQDQSHALLKYWLERDGKHATDTNLVECLTKINRMDIMHLME", "abundance fitness": "-0.099 ± 0.12"},
      {"variant": "ERLAYIADHLGFSWTELARELDFTEEQIHQIRIENPNSLQDQSHALLKYWLERDGKHATDTNLVECLTKINRMDIEHLME", "abundance fitness": "-0.063 ± 0.11"},
      {"variant": "ERLAYIADHLGFSWTELARELDFTEEQIHQIRIENPNSLQDQSHALLKYWLERDGKHATDTNLVECLTKINRMDIHHLME", "abundance fitness": "-0.084 ± 0.13"},
      {"variant": "ERLAYIADHSGFSWTELARELDFTEEQIHQIRIENPNSLQDQSHALLKYWLERDGKHATDTNLVECLTKINRMDIVHLME", "abundance fitness": "-0.668 ± 0.07"},
      {"variant": "ERLAYIADHWGFSWTELARELDFTEEQIHQIRIENPNSLQDQSHALLKYWLERDGKHATDTNLVECLTKINRMDIVHLME", "abundance fitness": "-0.498 ± 0.13"},
      {"variant": "ERLAYIADHLGFSWTELARELDFTEEQIHQIRDENPNSLQDQSHALLKYWLERDGKHATDTNLVECLTKINRMDIVHLME", "abundance fitness": "-0.105 ± 0.14"},
      {"variant": "ERLAYIADHLGRSWTELARELDFTEEQIHQIRIENPNSLQDQSHALLKYWLERDGKHATDTNLVECLTKINRMDIVHLME", "abundance fitness": "-0.041 ± 0.063"}
    ]}
  ]
}
